Literature values in publication PMC4080432.
pKd: −log10 of the molar value. Read-outs that look alike come from different tables or passages of the source.

What was measured:
[1] = target: NapB (Escherichia coli) (UniProt P0ABL3)
[2] = target: NapB (Escherichia coli) (UniProt P0ABL3); remark: listed apart in the source

Chain of UniProt P0ABL3 (P0ABL3 28-149): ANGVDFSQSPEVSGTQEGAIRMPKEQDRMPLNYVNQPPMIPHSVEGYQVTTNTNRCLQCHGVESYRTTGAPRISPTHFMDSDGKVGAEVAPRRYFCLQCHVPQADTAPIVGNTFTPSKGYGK

NapA (from UniProt P33937)
pKd [1]: 4.49 | pKd [2]: 4.82
